Assay results published in paper PMC6312923 (Life Science Alliance, 2018).

How the values were obtained:
recombinant PCNA = molecular target: T1, recombinant PCNA (Homo sapiens, UniProt P12004); experiment: FP assay, direct binding of TAMRA-labelled PIP box peptides to PCNA
T1 construct: made in house; host or cells: Escherichia coli BL21 (DE3)

PCNA = experiment: X-ray crystal structure of PCNA/PIP peptide complexes; assay type: binding, human; details: PCNA trimer; Cdt2 3.5 Å (6QC0), Cdt1 3.4 Å (6QCG)
Method: The protein solution at 17 mg·ml^−1 was pre-incubated with an equimolar amount of peptide, and 0.1 μl of this solution was mixed with 0.1 μl of reservoir solution and equilibrated against a 30 μl reservoir. Crystals for the Cdt2 complex were obtained in 10% (wt/vol) PEG 6000 and 100 mM MES/HCl, pH 6.0. Crystals for the Cdt1 complex were obtained in 15% (wt/vol) PEG 400, 100 mM calcium acetate, and 100 mM MES/HCl, pH 6.0. Crystals appeared at 4°C within 72 h. Crystals were briefly transferred to a cryo-protectant solution containing the reservoir solution and 25% (wt/vol) PEG200 and vitrified by dipping in liquid nitrogen.
X-ray data were collected on beamline ID29 at the European Synchrotron Radiation Facility. The images were integrated with XDS ([Kabsch, 2010]) and merged and scaled with AIMLESS ([Evans, 2011]). […] The models were built using COOT ([Emsley et al, 2010]) and refined with REFMAC ([Murshudov et al, 2011]) in iterative cycles. Model re-building and refinement parameter adjustment were performed in PDB-REDO ([Joosten et al, 2014]); homology-based hydrogen bond restraints ([van Beusekom et al, 2018]) were used at some stages of the procedure. The quality of the models was evaluated by MOLPROBITY ([Chen et al, 2010]). […]

[1] = molecular target: T2, PCNA (recombinant, for the in vitro binding assays; free or loaded on DNA) (human, UniProt P12004 1-261); experiment: pull-down; PCNA loaded by RFC (2 mM ATP, 37°C, 1 h) on nicked circular DNA beads, washed; beads incubated with purified Cdt1-3FLAG or CRL4^Cdt2 alone at 4°C for 1 h in HBS buffer (10 mM Hepes pH 7.4, 10 mM MgCl2, 0.2 mM EDTA, 0.05% Tween 20, 0.15 M NaCl); bound proteins by Western blot; details: both partners purified
T2 construct: PCNA, human, purified essentially as a trimer as described (Fukuda et al, 1995); also called free PCNA; PCNA^(on DNA); source: E. coli Rosetta(DE3) transformed with pT7-PCNA, purified (Resource Q, Superdex 200, Mono Q)
T2 sequence (P12004 whole entry): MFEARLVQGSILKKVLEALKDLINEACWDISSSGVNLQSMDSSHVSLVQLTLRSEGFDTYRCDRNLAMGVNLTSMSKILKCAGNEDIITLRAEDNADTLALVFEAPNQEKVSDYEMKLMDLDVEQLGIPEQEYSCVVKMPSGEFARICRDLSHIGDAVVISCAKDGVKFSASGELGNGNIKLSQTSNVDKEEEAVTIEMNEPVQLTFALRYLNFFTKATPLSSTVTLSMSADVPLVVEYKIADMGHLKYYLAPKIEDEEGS

[2] = test system: UV-C–damaged sites in MCF7 cells; experiment: FRAP of GFP-tagged proteins at sites of local UV-C damage in MCF7 cells; assay type: cell-based, human; details: GFP-tagged, UV-C 50 J/m^2
[3] = test system: PCNA loaded on nicked circular DNA (PCNA^on DNA); experiment: Binding of purified Cdt1 and CRL4^Cdt2 to PCNA loaded on ncDNA beads; set-up: species or system human; details: RFC +, 4°C 1 h, n = 3 or n > 3
Method: In our in vitro conditions, three molecules of PCNA trimer were loaded on one plasmid DNA. […] The interaction was not mediated by RFC proteins bound on ncDNA (Fig 5D, lane 6).
Figure S5. […] The beads were then incubated with Cdt1 or CRL4^Cdt2 (Step 2; binding). (B) RFC-dependent loading of PCNA.
Closed circular (cc) DNA beads were prepared as described ([Higashi et al, 2012]). Briefly, single-stranded DNA templates prepared using pBluescript II KS(−) were annealed with a biotinated oligonucleotide primer (5′-[…] [biotin-dT][…]-3′). After second-strand synthesis and ligation, covalently cc double-stranded DNA was purified by CsCl/EtBr density gradient centrifugation, incubated with streptavidin, and bound to biotin-sepharose beads to produce the cc DNA beads (around 100 ng per 1 μl bed volume of beads). A single nick was introduced by Nb.BbvCI (New England Biolabs) treatment to produce the ncDNA beads. As control beads, biotin-sepharose beads were incubated with streptavidin alone (sa-beads).
The sa-beads were treated in the same way and used as control beads. The beads were incubated with Cdt1 or CRL4^Cdt2 alone at 4°C for 1 h and washed with HBS buffer. The bound proteins were analysed on Western blotting. […] The purified nc DNA was run on 0.8% agarose gel in 1× TBE (Tris-borate-EDTA) buffer and detected with ethidium bromide.

free PCNA = experiment: Binding of free PCNA to Cdt1 or CRL4^Cdt2 on anti-FLAG beads; set-up: species or system human; details: 2 h at 4°C, Western blotting, three independent experiments
From the text: FLAG-tagged Cdt1 (Cdt1-3FLAG) and CRL4^Cdt2 (Cdt2-3FLAG) were expressed in insect cells and purified on anti-FLAG resin (Fig 5A).

T1 sequence (P12004 whole entry): as above

MEQRRVTDFFARRR [Cdt1^PIP, Cdt1 PIP box peptide (1–14)]
relative affinity for PCNA, Cdt2^PIP versus Cdt1^PIP (recombinant PCNA): two orders of magnitude weaker | binding stoichiometry in crystal (PCNA): one peptide bound per monomer

B1: Cdt1-3FLAG (natural protein, human, UniProt Q9H211 1-546, looked up)
chain: MEQRRVTDFFARRRPGPPRIAPPKLACRTPSPARPALRAPASATSGSRKRARPPAAPGRDQARPPARRRLRLSVDEVSSPSTPEAPDIPACPSPGQKIKKSTPAAGQPPHLTSAQDQDTISELASCLQRARELGARVRALKASAQDAGESCTPEAEGRPEEPCGEKAPAYQRFHALAQPGLPGLVLPYKYQVLAEMFRSMDTIVGMLHNRSETPTFAKVQRGVQDMMRRRFEECNVGQIKTVYPASYRFRQERSVPTFKDGTRRSDYQLTIEPLLEQEADGAAPQLTASRLLQRRQIFSQKLVEHVKEHHKAFLASLSPAMVVPEDQLTRWHPRFNVDEVPDIEPAALPQPPATEKLTTAQEVLARARNLISPRMEKALSQLALRSAAPSSPGSPRPALPATPPATPPAASPSALKGVSQDLLERIRAKEAQKQLAQMTRCPEQEQRLQRLERLPELARVLRSVFVSERKPALSMEVACARMVGSCCTIMSPGEMEKHLLLLSELLPDWLSLHRIRTDTYVKLDKAADLAHITARLAHQTRAEEGL
notes: Cdt1, human; also called FLAG-tagged Cdt1; Cdt1-3FLAG (WT); source: Sf21 insect cells (baculovirus), purified (DEAE flowthrough, anti-FLAG resin, 3× FLAG peptide elution); not shown: 3FLAG, C-terminal, kept
stoichiometry N [1]: 2.04 Cdt1 molecules on one PCNA trimer

B2: Cdt1: DNA replication licensing factor, FLAG-tagged, purified from insect cells; GFP-tagged in FRAP (protein, UniProt Q9H211 1-546, looked up)
DNA replication factor Cdt1: B1 chain
modifications: FLAG or eGFP tag
notes: DNA replication licensing factor, FLAG-tagged, purified from insect cells; GFP-tagged in FRAP
FRAP behaviour at UV-C–damaged sites [2]: dynamic interactions | bound protein [3]: 301 fmol | binding of free PCNA to protein beads (free PCNA): PCNA was detected
